According to patent publication US12072338B2, “Pharmaceutical peptides for the treatment of inflammatory diseases” (PROTAGONISTS LTD., priority 2007, dated 2024):
Several values for one entry are separate records, joined by “and”; a condition that tells them apart may be missing. Identical values can stand only once.

Assays:
IP-10 = target: T1, IP-10 (Homo sapiens, UniProt P02778); assay: Micro-array analysis of chemokine binding peptides: IP-10; conditions: limit = start of the upper 75% of that peptide's response range
T1 construct: purchased 300-12
T1 sequence (P02778 22-98): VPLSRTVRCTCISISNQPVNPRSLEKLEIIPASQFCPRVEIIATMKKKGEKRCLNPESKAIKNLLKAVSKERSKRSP
Experimental: (§1) (1) Printing: Chemokine (CK) solution (in water) was serially diluted with Print Reagent (GenTel BioSurfaces USA) to final concentrations of 50 μg and 25 μg/ml. BSA/BSA-Biotin control solutions (in water) were diluted with Print Reagent to 100 μg/ml. Amplified stock of M13 phage control (M13KEgIII Cloning Vector, New England Biolabs, Cat.No.E8101S) was stored in Tris Buffered Saline (TBS; pH7.5, 4° C.) and diluted with Print Reagent to the working titre (10^8 pfu/μl). An automated spotting robot (16 pin print tool, 0.4 mm head; BioRobotics, UK) was used to print the CK/BSA control/M13 control, 5 repeats per sample (CK 25 μg/ml and 50 μg/ml; BSA 100 μg/ml; M13 20 μl), on PATH Protein Microarray Slides (GenTel, Prod.No. 2-1005/-1025) at […], and 50-70% relative humidity. Printed micro-array slides were stored at Room Temperature (RT) or 4° C. for at least 24 h before use.
(§2) (2) Blocking: Block Buffer (500 μl/partition; PATHblock, GenTel, Prod.No. 2-1014) was applied to the slide for 1 hour at room temp (RT). After removal of Block Buffer, the slide was air dried for 25 minutes;
(§3) (3) Phage Presented Peptide Binding: Amplified recombinant phage stock was stored in TBS and diluted with Wash Buffer to working titer (10^7 pfu/μl). Recombinant phage suspension (300 μl) was applied per partition and incubated at RT for 1 hour with gentle agitation.
(§4) (4) First Washing: The slides were washed twice with Wash Buffer 300 μl/partition).
(§5) (5) Primary Antibody (Ab) Labeling: The slides were incubated with the Primary Ab (1 mg/ml diluted ×2500 (Wash Reagent), 300 μl; Mouse Anti-M13 monoclonal Ab; Amersham Biosciences, UK; Product Code 27-9420-01) for 45 minutes at RT.
(§6) (6) Second Washing: The slides were washed twice with Wash Buffer (300 μl/partition).
(§7) (7) Secondary Ab Labeling: The slides were incubated with Secondary Ab (1.5 mg/ml diluted ×5000 (Wash Reagent), 300 μl; Cy3-conjugated AffiniPure Goat Anti-Mouse IgG; Jackson ImmunoReserch Labs, USA; Product Code 115-165-062).
(§8) (8) Third Washing: The slides were washed twice with Wash Buffer (300 μl/partition).
(§9) (9) Rinse: the slides were rinsed twice with Rinse Buffer (PATHrinse, GenTel, Prod.No. 2-1018) then dried well.
(§10) (10) Scanning: The peptide-bound, labeled slide was scanned (Laser Intensity 80%, Gain 80%, Resolution 10 μm) with a ScanArray Life Scanner (Packard BioChip Technologies, USA).
(§11) (11) Analysis: Quantitative analysis of micro-array was performed by the SpotReader program of Niles Scientific (USA) and presented as Relative Fluorescence (RF) as a function of CK concentration. Micro-array readout (Cy3 fluorescence) was quantified to determine the relative binding affinities of a CBP for the CKs and by inference, the specificity of the CBP for binding to a CK.

MCP-2 = target: T2, MCP-2 (Homo sapiens, UniProt P80075); assay: Micro-array analysis of chemokine binding peptides: MCP-2; conditions: limit = start of the upper 75% of that peptide's response range
T2 construct: purchased 300-15
T2 sequence (P80075 24-99): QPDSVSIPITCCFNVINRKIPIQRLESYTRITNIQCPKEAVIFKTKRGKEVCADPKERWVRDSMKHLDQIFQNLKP
Experimental: as §1, §2, §3, §4, §5, §6, §7, §8, §9, §10, §11

Fractalkine = target: T3, Fractalkine (Homo sapiens, UniProt P78423); assay: Micro-array analysis of chemokine binding peptides: Fractalkine
T3 construct: purchased 300-31
T3 sequence (P78423 25-100 limits assumed): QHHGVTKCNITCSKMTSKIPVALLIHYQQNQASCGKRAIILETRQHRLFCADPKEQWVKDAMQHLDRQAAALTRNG
Experimental: as §1, §2, §3, §4, §5, §6, §7, §8, §9, §10, §11

IL-8 = assay: Micro-array analysis of chemokine binding peptides: IL-8; conditions: limit = start of the upper 75% of that peptide's response range
Experimental: as §1, §2, §3, §4, §5, §6, §7, §8, §9, §10, §11

MCP-4 = target: T4, MCP-4 (Homo sapiens, UniProt Q99616); assay: Micro-array analysis of chemokine binding peptides: MCP-4; conditions: limit = start of the upper 75% of that peptide's response range
T4 construct: purchased 300-24
Experimental: as §1, §2, §3, §4, §5, §6, §7, §8, §9, §10, §11

BCA-1 = target: T5, BCA-1 (Homo sapiens, UniProt O43927); assay: Micro-array analysis of chemokine binding peptides: BCA-1
T5 construct: purchased 300-47
T5 sequence (O43927 23-109): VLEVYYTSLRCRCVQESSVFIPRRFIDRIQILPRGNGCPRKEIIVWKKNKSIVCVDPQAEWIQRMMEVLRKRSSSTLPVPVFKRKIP
Experimental: as §1, §2, §3, §4, §5, §6, §7, §8, §9, §10, §11

Mig = target: T6, Mig (Homo sapiens, UniProt Q07325); assay: Micro-array analysis of chemokine binding peptides: Mig; conditions: limit = start of the upper 75% of that peptide's response range
T6 construct: purchased 300-26
T6 sequence (Q07325 23-125): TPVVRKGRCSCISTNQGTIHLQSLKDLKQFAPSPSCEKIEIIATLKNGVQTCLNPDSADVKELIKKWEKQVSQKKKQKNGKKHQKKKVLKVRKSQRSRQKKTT
Experimental: as §1, §2, §3, §4, §5, §6, §7, §8, §9, §10, §11

SDF1-β = target: T7, SDF1-β (Homo sapiens, UniProt P48061); assay: Micro-array analysis of chemokine binding peptides: SDF1-β
T7 construct: purchased 300-28b
Experimental: as §1, §2, §3, §4, §5, §6, §7, §8, §9, §10, §11

TECK = target: T8, TECK (Homo sapiens, UniProt O15444); assay: Micro-array analysis of chemokine binding peptides: TECK
T8 construct: purchased 300-45
T8 sequence (O15444 24-150): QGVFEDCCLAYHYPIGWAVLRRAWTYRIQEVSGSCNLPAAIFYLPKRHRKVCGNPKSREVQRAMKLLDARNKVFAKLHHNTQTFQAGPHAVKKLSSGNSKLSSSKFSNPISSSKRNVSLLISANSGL
Experimental: as §1, §2, §3, §4, §5, §6, §7, §8, §9, §10, §11

Eotaxin 3 = target: T9, Eotaxin 3 (Homo sapiens, UniProt Q9Y258); assay: Micro-array analysis of chemokine binding peptides: Eotaxin 3; conditions: limit = start of the upper 75% of that peptide's response range
T9 construct: purchased 300-48
T9 sequence (Q9Y258 24-94): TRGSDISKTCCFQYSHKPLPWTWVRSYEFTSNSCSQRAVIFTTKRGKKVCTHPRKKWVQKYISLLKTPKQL
Experimental: as §1, §2, §3, §4, §5, §6, §7, §8, §9, §10, §11

Lymphotactin = target: T10, Lymphotactin (Homo sapiens, UniProt P47992); assay: Micro-array analysis of chemokine binding peptides: Lymphotactin
T10 construct: purchased 300-20
T10 sequence (P47992 22-114): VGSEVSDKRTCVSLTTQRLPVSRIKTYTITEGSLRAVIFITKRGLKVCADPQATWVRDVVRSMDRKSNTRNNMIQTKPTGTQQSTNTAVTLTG
Experimental: as §1, §2, §3, §4, §5, §6, §7, §8, §9, §10, §11

RANTES = target: T11, RANTES (Homo sapiens, UniProt P13501); assay: Micro-array analysis of chemokine binding peptides: RANTES; conditions: limit = start of the upper 75% of that peptide's response range
T11 construct: purchased 300-06
T11 sequence (P13501 24-91): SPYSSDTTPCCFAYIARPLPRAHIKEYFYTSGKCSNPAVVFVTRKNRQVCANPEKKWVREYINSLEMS
Experimental: as §1, §2, §3, §4, §5, §6, §7, §8, §9, §10, §11

Exodus-2 = target: T12, Exodus-2 (Homo sapiens, UniProt O00585); assay: Micro-array analysis of chemokine binding peptides: Exodus-2
T12 construct: purchased 300-35
T12 sequence (O00585 24-134): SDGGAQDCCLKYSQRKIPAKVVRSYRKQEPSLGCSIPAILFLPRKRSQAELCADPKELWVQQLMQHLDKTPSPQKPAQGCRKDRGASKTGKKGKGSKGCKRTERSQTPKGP
Experimental: as §1, §2, §3, §4, §5, §6, §7, §8, §9, §10, §11

[1] = tested on: Adjuvant-Induced Arthritis (AIA) rats; assay: Adjuvant Induced Arthritis (AIA) rat model, Clinical Score; type: in vivo
Experimental: Peptides were tested in a rat model of AIA for their anti-inflammatory effects.
Disease Induction: AIA was induced in female Lewis rats aged 7-8 weeks by injection of heat-killed Mycobacerioum tuberculosis (Mt strain H37Ra, Difco Laboratories, USA) dispersed in incomplete Freund's adjuvant to a final concentration of 10 mg/ml (100 μl) at the base of the tail on day 0.
Measurement: Clinical Score (CS, 0-4) for each limb based on (a) joint inflammation, (b) redness, (c) deformity.
Efficacy Protocol 1 (5 rats per group). Peptide/control compound was injected intra-peritoneally (IP, 200 μl) on days 7-11 and 14-18.
Rats were sacrificed (CO2 inhalation) on day 43.
Efficacy Protocol 2 (8 rats per group). Group 1: peptide/PBS was injected intra-peritoneally (IP, 200 μl) on days 7-18; Group 2: PBS was injected IP on days 7-18; Group 3: Dexamethasone (Dexa) was injected IP on days 11 (Clinical Score (CS)1) and 13. Rats were sacrificed on day 43.
Combination Efficacy Protocol 1 (8 rats per group). Group 1: peptide injected IP on days 7-18; Group 2: PBS injected IP on days 7-18; Group 3: Dexa injected IP on day 11 (CS 1) and day 13; Group 4: Dexa injected IP on days 11 and 13 then peptide injected on days 14-22; Group 5: Dexa injected IP on days 11 and 13 then PBS injected on days 14-22.
Combination Efficacy Protocol 2 (8 rats per group). Group 1: peptide injected IP on days 7-18; Group 2: PBS injected IP on days 7-18; Group 3: Dexa injected IP on day 11 (CS 1) and day 13 then PBS on days 14-22; Group 4: PBS injected IP on days 7-10,12,14; Dexa injected on days 11, 13. Peptide injected on days 15-19.
Combination Efficacy Protocol 3 (8 rats per group). Group 1: peptide injected IP on days 7-18; Group 2: PBS injected IP on days 7-18; Group 3: Dexa injected IP on day 11 (CS 1) and day 13 then PBS on days 14-22; Group 4: peptide injected IP on days 7-10,12,14; Dexa injected on days 11, 13. Peptide injected on days 15-19.
Control Reagents for Adjuvant Induced Arthritis: Anti-Inflammatory Control: Dexamethasone Sodium Phosphate (Dexacort Forte, Teva) was dissolved in Phosphate Buffer Saline (PBS, GIBCO) to a final concentration of 1 mg/ml and injected in 200 μl (200 μg).
Negative Control: Phosphate Buffer Saline (PBS).

[2] = Dexa 200 μg IP on days 11 and 13
[3] = limit = start of the upper 75% of that peptide's response range

T7 sequence (P48061 22-93): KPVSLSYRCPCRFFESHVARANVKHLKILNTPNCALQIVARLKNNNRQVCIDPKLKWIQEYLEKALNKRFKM
T4 sequence (Q99616 17-98): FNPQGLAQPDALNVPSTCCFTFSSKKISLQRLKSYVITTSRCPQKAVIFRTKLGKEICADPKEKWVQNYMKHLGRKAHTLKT
Chain of IL-8 (P10145 28-99 limits assumed): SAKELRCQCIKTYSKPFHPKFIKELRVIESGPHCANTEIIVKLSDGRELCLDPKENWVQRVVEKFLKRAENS

Substance	binding to IP-10 with relatively high affinity (Relative Fluorescence Units) (IP-10)	binding to MCP-2 with relatively high affinity (Relative Fluorescence Units) (MCP-2)	binding to Fractalkine, stated in words (Fractalkine)	binding to IL-8 with relatively high affinity (Relative Fluorescence Units) (IL-8)	binding to MCP-4 with relatively high affinity (Relative Fluorescence Units) (MCP-4)	binding to BCA-1, stated in words (BCA-1)	binding to Mig with relatively high affinity (Relative Fluorescence Units) (Mig)	binding to SDF1-β, stated in words (SDF1-β)	binding to TECK, stated in words (TECK)	binding to Eotaxin 3 with relatively high affinity (Relative Fluorescence Units) (Eotaxin 3)	binding to Lymphotactin, stated in words (Lymphotactin)	binding to RANTES with relatively high affinity (Relative Fluorescence Units) (RANTES)	binding to Exodus-2, stated in words (Exodus-2)	day by which inflammation approached / was comparable with the disease, untreated group [1, 2]	day from which inflammation increased (onset of inflammation) [1, 2]	day until which inflammation was at the base line ([1]; Dexa IP on days 7-11 and 14-18, afterwards rose almost to the untreated, disease group)	binding to BCA-1 with relatively high affinity (Relative Fluorescence Units) (BCA-1; [3])	binding to TECK with relatively high affinity (Relative Fluorescence Units) (TECK; [3])	binding to Lymphotactin with relatively high affinity (Relative Fluorescence Units) (Lymphotactin; [3])
DYD [Ph-p33]	> 15,000 RFU	> 15,000 RFU	bound	> 15,000 RFU	> 15,000 RFU	bound	> 15,000 RFU	bound	bound	> 15,000 RFU	bound	> 15,000 RFU	bound						
Dexamethasone Sodium Phosphate [reference compound]														21 days and 28 days	15 days and 14 days	24 days			
GNAMCK (listed as Homo sapiens) [Ph-p8.1]										> 15,000 RFU							> 15,000 RFU	> 15,000 RFU	> 15,000 RFU
